B1: sybody Sb1^DMT1 (VHH)
VHH: QVQLVESGGGLVQAGGSLRLSCAASGFPVSRSEMYWYRQAPGKEREWVAAIHSIGWNTRYADSVKGRFTISRDNAKNTVYLQMNSLKPEDTAVYYCNVKDAGWFWTNYDYWGQGTQVTVSA
notes: synthetic nanobody (sybody) selected against DMT1; the tags are surmised from the vector
B2: Sb1^DMT1 (sybody, synthetic nanobody selected against DMT1) (VHH)
VHH: B1 VHH
notes: Selected from synthetic nanobody (sybody) libraries; The sybody model PDB 7P5V was only the starting model for building Sb1, not Sb1 itself
B3: sybody Sb2^DMT1 (VHH)
VHH: QVQLVESGGGLVQAGGSLRLSCAASGFPVNAAWMHWYRQAPGKEREWVAAIRSAGHLTEYADSVKGRFTISRDNAKNTVYLQMNNLKPEDTAVYYCWVYVGESYHGQGTQVTVSA
notes: synthetic nanobody (sybody) selected against DMT1; the tags are surmised from the vector; Not resolved in the maps of PDB 9F6N and 9F6O

Tests used:
[1] = target: T1, human DMT1 (SLC11A2) (human, UniProt P49281-3 2-590, chemically biotinylated (EZ-Link NHS-PEG4-Biotinylation kit) for the SPR experiments); assay: SPR; chemically biotinylated DMT1 or NRAMP1 immobilised on a SAD200M chip (about 900 RU); sybodies injected at 7.8-500 nM, 10 °C, 30 µl/min; 10 mM HEPES pH 7.4, 150 mM NaCl, 0.04% DDM, 0.004% CHS, 0.1% BSA; fit to a 1:1 binding model; conditions: both partners purified
T1 construct: human DMT1 (SLC11A2), UniProt P49281-3; Tags follow an HRV-3C site and were removed with HRV 3C protease; The same construct was used without biotin for the SEC of the complexes; source: HEK293S GnTI- cells, transient transfection, purified in DDM/CHS (StrepTactin, SEC); not shown: Myc, C-terminal, cleaved
T1 sequence: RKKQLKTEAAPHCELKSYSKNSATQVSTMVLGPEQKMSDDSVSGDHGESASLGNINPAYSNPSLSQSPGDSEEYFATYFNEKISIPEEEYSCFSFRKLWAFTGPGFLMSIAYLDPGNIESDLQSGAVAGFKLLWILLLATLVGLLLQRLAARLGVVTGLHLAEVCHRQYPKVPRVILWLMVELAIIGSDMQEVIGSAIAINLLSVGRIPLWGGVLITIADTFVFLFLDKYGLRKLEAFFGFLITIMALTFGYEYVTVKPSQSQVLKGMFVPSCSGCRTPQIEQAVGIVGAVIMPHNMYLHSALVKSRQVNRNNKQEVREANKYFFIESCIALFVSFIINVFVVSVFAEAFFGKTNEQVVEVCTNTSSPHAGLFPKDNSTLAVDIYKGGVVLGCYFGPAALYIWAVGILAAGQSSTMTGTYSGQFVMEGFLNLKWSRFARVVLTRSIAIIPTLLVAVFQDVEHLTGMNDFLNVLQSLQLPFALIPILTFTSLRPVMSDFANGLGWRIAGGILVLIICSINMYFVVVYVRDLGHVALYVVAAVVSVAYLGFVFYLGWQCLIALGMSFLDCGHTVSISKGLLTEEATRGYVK

[2] = target: T2, human DMT1 (SLC11A2) (Homo sapiens, DMT1 isoform 3 (P49281-3), UniProt P49281-3, chemically biotinylated (EZ-Link NHS-PEG4-Biotinylation kit) for the SPR assay; not for cryo-EM); assay: SPR; chemically biotinylated DMT1 or NRAMP1 immobilised on a SAD200M chip (~900 RU); sybodies injected at 7.8-500 nM, 10 °C, 30 µl/min; 10 mM HEPES pH 7.4, 150 mM NaCl, 0.04% DDM, 0.004% CHS, 0.1% BSA; single-site binding model; conditions: both partners purified
T2 construct: human DMT1 (SLC11A2), UniProt identifier P49281-3, codon-optimised synthetic gene in pcDXC3MS; The C-terminal HRV-3C site was cut, so residues of the cleavage site are left on the C-terminus; One construct was used for SPR (biotinylated, immobilised) and cryo-EM; source: HEK293S GnTI- cells, transient transfection, purified in DDM/CHS (StrepTactin, HRV 3C cleavage, SEC); not shown: Myc, …

Row | Binder | Kd [1] [nM] | Kd [2] [nM]
1 | B1 | 55 | –
2 | B2 | – | ~50
3 | B3 | 48 | –

From PMC11742427, “Structural basis for metal ion transport by the human SLC11 proteins DMT1 and NRAMP1” (Nature Communications, 2025)
